Measured values: PMC7367873, “Dissecting the sequence determinants for dephosphorylation by the catalytic subunits of phosphatases PP1 and PP2A” (Nature Communications, 2020)

Assays:
GFP-14-3-3β = GFP-14-3-3β co-IP with LC-MS/MS, untreated GFP-14-3-3β versus GFP control (14-3-3 interactome); format: binding, human
[1] = test system: GFP-14-3-3β and its binding proteins; assay: GFP-14-3-3β co-IP with LC-MS/MS label-free quantification, untreated versus PP1c-treated; parameters: species or system human
[2] = untreated vs GFP, LFQ intensities, replicates 1-3
[3] = PP1 vs untreated, LFQ intensities, replicates 1-3

Difference (log2), PP1 vs untreated [1, 3] [log2]	Difference (log2), PP1 vs untreated ([1]; log2 difference, pairwise comparison PP1 vs untreated, label-free quantification, 3 replicates each)	Molecule	Difference (log2), untreated vs GFP (GFP-14-3-3β; [2]) [log2]	Difference (log2), untreated vs GFP (GFP-14-3-3β; log2 difference, pairwise comparison untreated vs GFP, label-free quantification, 3 replicates each)
-1.243		HNRNPL (protein, UniProt P14866 1-589, looked up) Heterogeneous nuclear …: MSRRLLPRAEKRRRRLEQRQQPDEQRRRSGAMVKMAAAGGGGGGGRYYGGGSEGGRAPKRLKTDNAGDQHGGGGGGGGGAGAAGGGGGGENYDDPHKTPASPVVHIRGLIDGVVEADLVEALQEFGPISYVVVMPKKRQALVEFEDVLGACNAVNYAADNQIYIAGHPAFVNYSTSQKISRPGDSDDSRSVNSVLLFTILNPIYSITTDVLYTICNPCGPVQRIVIFRKNGVQAMVEFDSVQSAQRAKASLNGADIYSGCCTLKIEYAKPTRLNVFKNDQDTWDYTNPNLSGQGDPGSNPNKRQRQPPLLGDHPAEYGGPHGGYHSHYHDEGYGPPPPHYEGRRMGPPVGGHRRGPSRYGPQYGHPPPPPPPPEYGPHADSPVLMVYGLDQSKMNCDRVFNVFCLYGNVEKVKFMKSKPGAAMVEMADGYAVDRAITHLNNNFMFGQKLNVCVSKQPAIMPGQSYGLEDGSCSYKDFSESRNNRFSTPEQAAKNRIQHPSNVLHFFNAPLEVTEENFFEICDELGVKRPSSVKVFSGKSERSSSGLLEWESKSDALETLGFLNHYQMKNPNGPYPYTLKLCFSTAQHAS	0.7735	
-1.189		GTF3C3 (protein, UniProt Q9Y5Q9 2-886, looked up) General transcription factor …: SGFSPELIDYLEGKISFEEFERRREERKTREKKSLQEKGKLSAEENPDDSEVPSSSGINSTKSQDKDVNEGETSDGVRKSVHKVFASMLGENEDDEEEEEEEEEEEEEEETPEQPTAGDVFVLEMVLNRETKKMMKEKRPRSKLPRALRGLMGEANIRFARGEREEAILMCMEIIRQAPLAYEPFSTLAMIYEDQGDMEKSLQFELIAAHLNPSDTEEWVRLAEMSLEQDNIKQAIFCYTKALKYEPTNVRYLWERSSLYEQMGDHKMAMDGYRRILNLLSPSDGERFMQLARDMAKSYYEANDVTSAINIIDEAFSKHQGLVSMEDVNIAAELYISNKQYDKALEIITDFSGIVLEKKTSEEGTSEENKAPENVTCTIPDGVPIDITVKLMVCLVHLNILEPLNPLLTTLVEQNPEDMGDLYLDVAEAFLDVGEYNSALPLLSALVCSERYNLAVVWLRHAECLKALGYMERAAESYGKVVDLAPLHLDARISLSTLQQQLGQPEKALEALEPMYDPDTLAQDANAAQQELKLLLHRSTLLFSQGKMYGYVDTLLTMLAMLLKVAMNRAQVCLISSSKSGERHLYLIKVSRDKISDSNDQESANCDAKAIFAVLTSVLTKDDWWNLLLKAIYSLCDLSRFQEAELLVDSSLEYYSFYDDRQKRKELEYFGLSAAILDKNFRKAYNYIRIMVMENVNKPQLWNIFNQVTMHSQDVRHHRFCLRLMLKNPENHALCVLNGHNAFVSGSFKHALGQYVQAFRTHPDEPLYSFCIGLTFIHMASQKYVLRRHALIVQGFSFLNRYLSLRGPCQESFYNLGRGLHQLGLIHLAIHYYQKALELPPLVVEGIELDQLDLRRDIAYNLSLIYQSSGNTGMAQTLLYTYCSI	0.6927	
-1.38		GAPVD1 (protein, UniProt Q14C86 1-1478, looked up) GTPase-activating protein and …: MVKLDIHTLAHHLKQERLYVNSEKQLIQRLNADVLKTAEKLYRTAWIAKQQRINLDRLIITSAEASPAECCQHAKILEDTQFVDGYKQLGFQETAYGEFLSRLRENPRLIASSLVAGEKLNQENTQSVIYTVFTSLYGNCIMQEDESYLLQVLRYLIEFELKESDNPRRLLRRGTCAFSILFKLFSEGLFSAKLFLTATLHEPIMQLLVEDEDHLETDPNKLIERFSPSQQEKLFGEKGSDRFRQKVQEMVESNEAKLVALVNKFIGYLKQNTYCFPHSLRWIVSQMYKTLSCVDRLEVGEVRAMCTDLLLACFICPAVVNPEQYGIISDAPINEVARFNLMQVGRLLQQLAMTGSEEGDPRTKSSLGKFDKSCVAAFLDVVIGGRAVETPPLSSVNLLEGLSRTVVYITYSQLITLVNFMKSVMSGDQLREDRMALDNLLANLPPAKPGKSSSLEMTPYNTPQLSPATTPANKKNRLPIATRSRSRTNMLMDLHMDHEGSSQETIQEVQPEEVLVISLGTGPQLTPGMMSENEVLNMQLSDGGQGDVPVDENKLHGKPDKTLRFSLCSDNLEGISEGPSNRSNSVSSLDLEGESVSELGAGPSGSNGVEALQLLEHEQATTQDNLDDKLRKFEIRDMMGLTDDRDISETVSETWSTDVLGSDFDPNIDEDRLQEIAGAAAENMLGSLLCLPGSGSVLLDPCTGSTISETTSEAWSVEVLPSDSEAPDLKQEERLQELESCSGLGSTSDDTDVREVSSRPSTPGLSVVSGISATSEDIPNKIEDLRSECSSDFGGKDSVTSPDMDEITHGAHQLTSPPSQSESLLAMFDPLSSHEGASAVVRPKVHYARPSHPPPDPPILEGAVGGNEARLPNFGSHVLTPAEMEAFKQRHSYPERLVRSRSSDIVSSVRRPMSDPSWNRRPGNEERELPPAAAIGATSLVAAPHSSSSSPSKDSSRGETEERKDSDDEKSDRNRPWWRKRFVSAMPKAPIPFRKKEKQEKDKDDLGPDRFSTLTDDPSPRLSAQAQVAEDILDKYRNAIKRTSPSDGAMANYESTGDNHDRDLSSKLLYHSDKEVMGDGESAHDSPRDEALQNISADDLPDSASQAAHPQDSAFSYRDAKKKLRLALCSADSVAFPVLTHSTRNGLPDHTDPEDNEIVCFLKVQIAEAINLQDKNLMAQLQETMRCVCRFDNRTCRKLLASIAEDYRKRAPYIAYLTRCRQGLQTTQAHLERLLQRVLRDKEVANRYFTTVCVRLLLESKEKKIREFIQDFQKLTAADDKTAQVEDFLQFLYGAMAQDVIWQNASEEQLQDAQLAIERSVMNRIFKLAFYPNQDGDILRDQVLHEHIQRLSKVVTANHRALQIPEVYLREAPWPSAQSEIRTISAYKTPRDKVQCILRMCSTIMNLLSLANEDSVPGADDFVPVLVFVLIKANPPCLLSTVQYISSFYASCLSGEESYWWMQFTAAVEFIKTIDDRK	4.189	
-1.367		FBL (protein, UniProt P22087 1-321, looked up) rRNA 2'-O-methyltransferase …: MKPGFSPRGGGFGGRGGFGDRGGRGGRGGFGGGRGRGGGFRGRGRGGGGGGGGGGGGGRGGGGFHSGGNRGRGRGGKRGNQSGKNVMVEPHRHEGVFICRGKEDALVTKNLVPGESVYGEKRVSISEGDDKIEYRAWNPFRSKLAAAILGGVDQIHIKPGAKVLYLGAASGTTVSHVSDIVGPDGLVYAVEFSHRSGRDLINLAKKRTNIIPVIEDARHPHKYRMLIAMVDVIFADVAQPDQTRIVALNAHTFLRNGGHFVISIKANCIDSTASAEAVFASEVKKMQQENMKPQEQLTLEPYERDHAVVVGVYRPPPKVKN	2.48	
-1.352		KANK1 (protein, UniProt Q14678 1-1352, looked up) KN motif and ankyrin repeat …: MAHTTKVNGSASGKAGDILSGDQDKEQKDPYFVETPYGYQLDLDFLKYVDDIQKGNTIKRLNIQKRRKPSVPCPEPRTTSGQQGIWTSTESLSSSNSDDNKQCPNFLIARSQVTSTPISKPPPPLETSLPFLTIPENRQLPPPSPQLPKHNLHVTKTLMETRRRLEQERATMQMTPGEFRRPRLASFGGMGTTSSLPSFVGSGNHNPAKHQLQNGYQGNGDYGSYAPAAPTTSSMGSSIRHSPLSSGISTPVTNVSPMHLQHIREQMAIALKRLKELEEQVRTIPVLQVKISVLQEEKRQLVSQLKNQRAASQINVCGVRKRSYSAGNASQLEQLSRARRSGGELYIDYEEEEMETVEQSTQRIKEFRQLTADMQALEQKIQDSSCEASSELRENGECRSVAVGAEENMNDIVVYHRGSRSCKDAAVGTLVEMRNCGVSVTEAMLGVMTEADKEIELQQQTIESLKEKIYRLEVQLRETTHDREMTKLKQELQAAGSRKKVDKATMAQPLVFSKVVEAVVQTRDQMVGSHMDLVDTCVGTSVETNSVGISCQPECKNKVVGPELPMNWWIVKERVEMHDRCAGRSVEMCDKSVSVEVSVCETGSNTEESVNDLTLLKTNLNLKEVRSIGCGDCSVDVTVCSPKECASRGVNTEAVSQVEAAVMAVPRTADQDTSTDLEQVHQFTNTETATLIESCTNTCLSTLDKQTSTQTVETRTVAVGEGRVKDINSSTKTRSIGVGTLLSGHSGFDRPSAVKTKESGVGQININDNYLVGLKMRTIACGPPQLTVGLTASRRSVGVGDDPVGESLENPQPQAPLGMMTGLDHYIERIQKLLAEQQTLLAENYSELAEAFGEPHSQMGSLNSQLISTLSSINSVMKSASTEELRNPDFQKTSLGKITGNYLGYTCKCGGLQSGSPLSSQTSQPEQEVGTSEGKPISSLDAFPTQEGTLSPVNLTDDQIAAGLYACTNNESTLKSIMKKKDGNKDSNGAKKNLQFVGINGGYETTSSDDSSSDESSSSESDDECDVIEYPLEEEEEEEDEDTRGMAEGHHAVNIEGLKSARVEDEMQVQECEPEKVEIRERYELSEKMLSACNLLKNTINDPKALTSKDMRFCLNTLQHEWFRVSSQKSAIPAMVGDYIAAFEAISPDVLRYVINLADGNGNTALHYSVSHSNFEIVKLLLDADVCNVDHQNKAGYTPIMLAALAAVEAEKDMRIVEELFGCGDVNAKASQAGQTALMLAVSHGRIDMVKGLLACGADVNIQDDEGSTALMCASEHGHVEIVKLLLAQPGCNGHLEDNDGSTALSIALEAGHKDIAVLLYAHVNFAKAQSPGTPRLGRKTSPGPTHRGSFD	3.839	
	1.5807	PHB (protein, UniProt P35232 2-272, looked up) Prohibitin 1: AAKVFESIGKFGLALAVAGGVVNSALYNVDAGHRAVIFDRFRGVQDIVVGEGTHFLIPWVQKPIIFDCRSRPRNVPVITGSKDLQNVNITLRILFRPVASQLPRIFTSIGEDYDERVLPSITTEILKSVVARFDAGELITQRELVSRQVSDDLTERAATFGLILDDVSLTHLTFGKEFTEAVEAKQVAQQEAERARFVVEKAEQQKKAAIISAEGDSKAAELIANSLATAGDGLIELRKLEAAEDIAYQLSRSRNITYLPAGQSVLLQLPQ		1.469
-1.398		NEXN (protein, UniProt Q0ZGT2 1-675, looked up) Nexilin: MNDISQKAEILLSSSKPVPKTYVPKLGKGDVKDKFEAMQRAREERNQRRSRDEKQRRKEQYIREREWNRRKQEIKEMLASDDEEDVSSKVEKAYVPKLTGTVKGRFAEMEKQRQEEQRKRTEEERKRRIEQDMLEKRKIQRELAKRAEQIEDINNTGTESASEEGDDSLLITVVPVKSYKTSGKMKKNFEDLEKEREEKERIKYEEDKRIRYEEQRPSLKEAKCLSLVMDDEIESEAKKESLSPGKLKLTFEELERQRQENRKKQAEEEARKRLEEEKRAFEEARRQMVNEDEENQDTAKIFKGYRPGKLKLSFEEMERQRREDEKRKAEEEARRRIEEEKKAFAEARRNMVVDDDSPEMYKTISQEFLTPGKLEINFEELLKQKMEEEKRRTEEERKHKLEMEKQEFEQLRQEMGEEEEENETFGLSREYEELIKLKRSGSIQAKNLKSKFEKIGQLSEKEIQKKIEEERARRRAIDLEIKEREAENFHEEDDVDVRPARKSEAPFTHKVNMKARFEQMAKAREEEEQRRIEEQKLLRMQFEQREIDAALQKKREEEEEEEGSIMNGSTAEDEEQTRSGAPWFKKPLKNTSVVDSEPVRFTVKVTGEPKPEITWWFEGEILQDGEDYQYIERGETYCLYLPETFPEDGGEYMCKAVNNKGSAASTCILTIESKN	0.832	
